From publication PMC7824274, “Separation of Coiled-Coil Structures in Lamin A/C Is Required for the Elongation of the Filament” (Cells, 2020)
Changes are numbered by the printed parent chain.

Assays:
[1] = target: T1, His-tagged lamin A/C 250-400 fragment, wild type (human, UniProt P02545 250-400); experiment: pull-down; His-tagged lamin 250-400 fragments on Ni-NTA resin with the lamin 1-125 fragment; nonreducing (oxidized) condition; SDS-PAGE; conditions: both partners purified
T1 construct: lamin A/C, human, residues 250-400 (C-terminal part of coil 2); pProEx-HTa vector: a TEV protease cleavage site stands between the His-tag and the lamin residues; also called His-lamin 250-400 WT; source: E. coli BL21 (DE3), purified (cobalt-Talon, HiTrap Q, SEC); not shown: His-tag, N-terminal, kept
T1 sequence (looked up): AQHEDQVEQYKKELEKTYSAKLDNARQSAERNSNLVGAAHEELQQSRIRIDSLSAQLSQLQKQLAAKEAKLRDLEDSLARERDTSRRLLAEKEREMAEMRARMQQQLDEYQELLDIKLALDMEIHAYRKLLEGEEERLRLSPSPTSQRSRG

[2] = target: T2, His-tagged lamin A/C 250-400 fragment, L362C (human, UniProt P02545 250-400, L362C); experiment: pull-down; His-tagged lamin 250-400 fragments on Ni-NTA resin with the lamin 1-125 fragment; reducing condition; SDS-PAGE; conditions: both partners purified
T2 construct: lamin A/C, human, residues 250-400 with L362C; also called His-lamin 250-400 L362C; source: E. coli BL21 (DE3), purified (cobalt-Talon, HiTrap Q, SEC); not shown: His-tag, N-terminal, kept
T2 sequence (looked up): T1 sequence (looked up) with L113C

- binding result [1]: binds
- binding result [2]: binds
B1: lamin A/C 1-125 fragment, wild type, prey of Figure 6b (domain or fragment, human, UniProt P02545 1-125, looked up)
chain: METPSQRRATRSGAQASSTPLSPTRITRLQEKEDLQELNDRLAVYIDRVRSLETENAGLRLRITESEEVVSREVSGIKAAYEAELGDARKTLDSVAKERARLQLELSKVREEFKELKARNTKKEG
notes: the pull-down methods say that preys were His-tag cleaved lamin proteins; the purification paragraph names TEV cleavage only for lamin 250-400; also called coil 1a fragment; source: E. coli BL21 (DE3), purified (cobalt-Talon, HiTrap Q, SEC); not shown: His-tag, N-terminal, cleaved
